Numbering of substitutions follows the chain as printed.

The EC50 is the concentration needed to bring the measured effect to its halfway point. A higher EC50 goes with lower potency in that assay.

Assay [1] addresses T1, human DR4 (human, UniProt O00220 24-239, limits assumed).
T1 construct: Recombinant DR4 coated on ELISA wells; also called death receptor 4; TRAIL-R1
T1 sequence: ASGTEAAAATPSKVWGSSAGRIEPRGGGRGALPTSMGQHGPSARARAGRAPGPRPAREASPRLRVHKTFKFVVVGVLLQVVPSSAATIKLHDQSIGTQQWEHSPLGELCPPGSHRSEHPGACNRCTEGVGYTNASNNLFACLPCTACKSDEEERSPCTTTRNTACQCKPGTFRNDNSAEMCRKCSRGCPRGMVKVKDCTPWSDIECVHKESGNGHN
The experiment in a line: ELISA, half-log dilutions on wells coated with 1 microgram/ml human DR4, anti-human Fc HRP. For orientation: ELISA stands for enzyme-linked immunosorbent assay.
Text: (§1) The bivalent SBP were detected using an anti-human Fc antibody conjugated to HRP.

The target of assay [2] is T2, DcR1 (human, UniProt O14798 24-159, limits assumed).
T2 construct: Recombinant protein coated on wells; also called decoy receptor DcR1
T2 sequence: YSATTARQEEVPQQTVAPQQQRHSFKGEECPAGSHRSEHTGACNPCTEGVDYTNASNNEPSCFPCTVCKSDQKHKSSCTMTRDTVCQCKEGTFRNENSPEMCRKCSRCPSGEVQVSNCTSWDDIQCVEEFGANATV
Put plainly: ELISA, bivalent SBP on TRAIL receptor family proteins [C].
Text: as §1

The target of assay [3] is T3, DcR2 (human, UniProt Q9UBN6 56-189, limits assumed).
T3 construct: Recombinant protein coated on wells; also called decoy receptor DcR2
T3 sequence: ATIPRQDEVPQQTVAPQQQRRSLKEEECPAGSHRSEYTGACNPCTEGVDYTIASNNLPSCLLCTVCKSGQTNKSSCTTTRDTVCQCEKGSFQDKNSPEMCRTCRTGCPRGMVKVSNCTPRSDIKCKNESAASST
The description is as above.
Text: as §1

The target of assay [4] is T4, DR4 on Ramos cells (human, UniProt O00220 24-468).
T4 sequence (looked up): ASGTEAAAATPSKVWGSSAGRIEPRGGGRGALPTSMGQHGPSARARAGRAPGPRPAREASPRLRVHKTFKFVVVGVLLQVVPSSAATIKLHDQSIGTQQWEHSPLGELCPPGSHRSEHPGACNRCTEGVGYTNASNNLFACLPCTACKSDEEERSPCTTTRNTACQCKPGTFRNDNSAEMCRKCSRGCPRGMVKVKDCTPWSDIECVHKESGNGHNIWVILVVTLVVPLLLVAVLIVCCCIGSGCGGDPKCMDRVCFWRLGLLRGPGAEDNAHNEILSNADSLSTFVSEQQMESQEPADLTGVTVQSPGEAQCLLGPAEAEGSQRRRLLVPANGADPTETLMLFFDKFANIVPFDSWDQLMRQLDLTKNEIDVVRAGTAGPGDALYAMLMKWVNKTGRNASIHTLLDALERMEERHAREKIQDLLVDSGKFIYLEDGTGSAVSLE
The experiment in a line: cell-based or functional assay.

In assay [5] the target is T5, human DR5 (human, UniProt O14763 52-183, limits assumed).
T5 construct: also called sDR5 (Peprotech); death receptor 5
T5 sequence (O14763 other isoform, or with tags, fused parts or gaps limits assumed): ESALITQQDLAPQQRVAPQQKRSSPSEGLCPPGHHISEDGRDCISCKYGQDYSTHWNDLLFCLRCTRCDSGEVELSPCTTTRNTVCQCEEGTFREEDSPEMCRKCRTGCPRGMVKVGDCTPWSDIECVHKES
Put plainly: antigen ELISA, half-log dilutions on coated human DR5, anti-human Fc-HRP.
Text: as §1

Assay [6] has as its target T5, human DR5. Put plainly: ELISA, half-log dilutions on wells coated with 1 microgram/ml human DR5, anti-human Fc HRP.
Text: as §1
Assay [7] addresses T6, Rhesus (NHP-2) DR5-Fc (Rhesus).
T6 construct: also called Rhesus DR5-Fc
The experiment in a line: ELISA, wells coated with 1 microgram/ml antigen, half-log dilutions, detection with anti-VpreB-HRP; inset table has no row label, the text calls the values half-maximal binding concentrations; unit from the axis Log[Agent] (nM) [panel D].
Text: (§2) Streptavidin-HRP or a monoclonal anti-VpreB-HRP conjugated antibody was used for detection and the assay developed with a TMB solution.

In assay [8] the target is T7, mouse DR5-Fc (mouse, UniProt Q9QZM4 53-177, limits assumed).
T7 construct: also called mouse death receptor; not shown: Fc part
T7 sequence (looked up): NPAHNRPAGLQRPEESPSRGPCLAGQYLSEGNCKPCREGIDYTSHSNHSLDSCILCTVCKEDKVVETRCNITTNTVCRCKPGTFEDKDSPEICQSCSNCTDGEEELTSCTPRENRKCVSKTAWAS
The experiment in a line: ELISA, 100 ng/well mouse DR5-Fc, 10 nM bivalent SBP, detection HRP-aVpreB.

Assay [9] has as its target T1, human DR4. The experiment in a line: antigen ELISA, half-log dilutions on coated human DR4, anti-human Fc-HRP.
Text: as §1
The target of assay [10] is T8, Cynomolgus (NHP-1) DR4-Fc (Cynomolgus).
T8 construct: also called Cynomolgus DR4-Fc
The experiment in a line: ELISA, wells coated with 1 microgram/ml antigen, half-log dilutions of SgG, detection with anti-VpreB-HRP; unit taken from the axis Lg(nM) [panel A].
Text: as §2

In assay [11] the target is T9, Cynomolgus (NHP-1) DR5-Fc (Cynomolgus).
T9 construct: also called Cynomolgus DR5-Fc
Put plainly: ELISA, wells coated with 1 microgram/ml antigen, half-log dilutions of SgG, detection with anti-VpreB-HRP; unit taken from the axis Lg(nM) [panel B].
Text: as §2

Assay [12] addresses T10, Rhesus (NHP-2) DR4-Fc (Rhesus, UniProt F6TP00 24-239).
T10 construct: also called Rhesus DR4-Fc
T10 sequence: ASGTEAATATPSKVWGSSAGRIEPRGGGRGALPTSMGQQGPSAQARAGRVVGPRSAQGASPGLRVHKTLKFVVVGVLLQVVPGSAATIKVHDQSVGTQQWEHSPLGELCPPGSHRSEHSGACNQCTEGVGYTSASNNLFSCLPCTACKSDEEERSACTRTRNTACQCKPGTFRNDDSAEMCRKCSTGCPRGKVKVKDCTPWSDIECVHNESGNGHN
The experiment in a line: ELISA, wells coated with 1 microgram/ml antigen, half-log dilutions, detection with anti-VpreB-HRP; inset table has no row label, the text calls the values half-maximal binding concentrations; unit from the axis Log[Agent] (nM) [panel C].
Text: as §2

B1: 3631-G09 bivalent SBP (other)
VH: EVQLVESGGGLVKPGGSLRLSCAASGFTFSTYGMHWVRQAPGKGLEWVAGINYSGNNKYYADSVKGRFTISRDNAKNSLYLQMNSLRAEDTAVYYCARDHSTWLSRHLDYWGQGTLVTVSS
surrogate light: QPVLHQPPAMSSALGTTIRLTCTLRNDHDIGVYSVYWYQQRPGHPPRFLLRYFSQSDKSQGPQVPPRFSGSKDVARNRGYLSISELQPEDEAMYYCAMGARSSVTHVFGSGTQLTVLSQPKATPSVTLFPPSSEELQANKATLVCLMNDFYPGILTVTWKADGTPITQGVEMTTPSKQSNNKYAASSYLSLTPEQWRSRRSYSCQVMHEGSTVEKTVAPAECS
notes: IgG1-like surroglobulin: full length heavy chain paired with surrogate light chain fusion 1, made in HEK293, Protein A purified; also called SL231; SL-231; copies: 2 + 2
As to B1, the EC50 in assay [1] was 0.0298 nM; in assay [5], 0.05 nM; in assay [6], 0.0502 nM; in [7] it was 0.627 nM; in assay [9] it was ~0.03 nM. Moreover, the binding result in assay [2] was “no binding (tested: 1000 nM)”; in [3] it was “no binding (tested: 1000 nM)”; in [8] it was “no binding (tested: 10 nM)”. Moreover, the “EC50 (nM), inhibition of Ramos cell proliferation (WST-1), SgG cross-linked with anti-human-Fc antibody or Protein G” value in [4] was determined as 0.498 nM.

B2: 3706-A02 (SL466) (other)
VH: B1 VH with H100S, W103T, L104R, S105T, H107A
light: B1 surrogate light
notes: Bivalent SBP (SgG); also called SgG
Regarding B2, the EC50 in assay [10] came to 6.36 nM; in [11] it was 0.273 nM; in [12], 146 nM; in assay [7], 0.294 nM.

The values are drawn from patent US20150004162A1 (I2 PHARMACEUTICALS, published 2015).
